Residue numbers refer to the chain shown, from its start. Where two headings read alike, the source gives them in different places.
Experiments:
[1] = biological target: T1, Aβ1-42 (rPeptide, A-1167-2) (UniProt P05067 672-713); test: direct ELISA, coated Aβ1-42
T1 construct: domain: Aβ1-42; also called Abeta 1-42
Procedure: (§1) Direct ELISA was used to test each antibody's affinity for Aβ₁₋₄₂ and pyroglutamate-modified Aβ (Aβₚ₃₋₄₂). Plates were coated with 0.5 μM of Aβ₁₋₄₂ (rPeptide, A-1167-2) or Aβₚ₃₋₄₂ (AnaSpec, AS-29907-01) for 2 h at 4° C. Diluents of antibodies (3-fold serial dilutions with concentrations in the range of 0-100 nM) were added to the plate for 1 h at RT. Binding of antibody to immobilized Aβ on each plate was detected by HRP-labeled secondary antibody and TMB substrate, as described in Example 2.

[2] = biological target: T2, biotin-labelled Aβ1-40 monomer (AnaSpec, AS-61483-01) (UniProt P05067 672-711, biotin label, position not stated); test: capture ELISA, coated antibody, biotin-Aβ1-40 monomer
T2 construct: domain: Aβ1-40; also called biotin-conjugated Aβ40 monomer; biotin-Aβ monomer

[3] = biological target: T3, HiLyte488 labelled Aβ1-42 protofibrils (UniProt P05067 672-713, HiLyte488 fluorophore on part of the peptides (labelled and unlabelled Aβ1-42 monomers mixed 1:5)); test: cell-based or functional assay
[4] = biological target: T2, biotin-labelled Aβ1-40 monomer …; test: capture ELISA, coated antibody, biotin-Aβ1-40 monomer; remark: listed apart in the source
Procedure: The plate was incubated for 1 h at RT and washed 3 times with PBST. The plate was then incubated with HRP-conjugated streptavidin (Thermo Fisher Scientific, SNN2004) at 1:5000 diluted in 1% BSA for 20 min at RT and washed 3 times. TMB Stabilized Chromogen substrate solution (Life Technologies, SB02) was added to the plate, and the reaction was stopped by adding 1M sulfuric acid. The absorbance at 450 nm was measured in a plate reader.
(§2) A 96-well plate was coated with 5 μg/mL of antibodies overnight at RT. The plate was then treated with diluents of biotin-labelled Aβ₁₋₄₀ monomers (AnaSpec, AS-61483-01, 4-fold serial dilutions with concentrations in the range of 0-1000 nM) for 1 h at RT. The binding of biotin-labelled Aβ₁₋₄₀ monomers with immobilized antibody was detected by HRP-conjugated streptavidin and TMB, as described in Example 2.

[5] = biological target: T1, Aβ1-42 (rPeptide, A-1167-2); test: direct ELISA, coated Aβ1-42; remark: listed apart in the source
[6] = biological target: T3, HiLyte488 labelled Aβ1-42 protofibrils; test: cell-based or functional assay; remark: listed apart in the source
[7] = biological target: T1, Aβ1-42 (rPeptide, A-1167-2); test: direct ELISA, coated Aβ1-42; remark: listed apart in the source
[8] = biological target: T4, pyroglutamate-modified Aβ (Aβp3-42) (AnaSpec, AS-29907-01) (UniProt P05067 674-713, pyroglutamate at Aβ position 3 (the N-terminus)); test: direct ELISA, coated Aβp3-42
T4 construct: domain: Aβp3-42; also called Abeta p3-42

[9] = biological target: T4, pyroglutamate-modified Aβ (Aβp3-42) …; test: direct ELISA, coated Aβp3-42; remark: listed apart in the source
Procedure: After 3 washes with 1× Phosphate-Buffered Saline, 0.1% Tween 20 (PBST), each plate was blocked with 1% BSA in PBS for 1 h at room temperature (RT). Diluents of Aβ antibodies (3-fold serial dilutions with concentrations in the range of 0-100 nM) were added to plates. The plate was incubated for 1 h at RT and washed 3 times. The plate was then incubated with HRP conjugated goat anti-mouse IgG (Thermo Fisher Scientific, G-21040; thermofisher.com) 1:5000 diluted in 1% BSA for 1 h at RT and washed 3 times. TMB (3,3′,5,5;-tetramethylbenzidine) Stabilized Chromogen substrate solution (Life Technologies (Thermo Fisher Scientific) SB02) was added to the plate, and the reaction was stopped by adding 1M sulfuric acid. The absorbance at 450 nm was measured in a plate reader.
as §1

[10] = biological target: T2, biotin-labelled Aβ1-40 monomer …; test: capture ELISA, coated antibody, biotin-Aβ1-40 monomer; remark: listed apart in the source
Procedure: as §2

[11] = biological target: T3, HiLyte488 labelled Aβ1-42 protofibrils; test: cell-based or functional assay; remark: listed apart in the source
[12] = biological target: T4, pyroglutamate-modified Aβ (Aβp3-42) …; test: direct ELISA, coated Aβp3-42; remark: listed apart in the source
Procedure: as §1

[13] = biological target: T1, Aβ1-42 (rPeptide, A-1167-2); test: direct ELISA, coated Aβ1-42; remark: listed apart in the source
[14] = biological target: T5, Aβ1-42 protofibril (UniProt P05067 672-713); test: ratio of competitive ELISA IC50s, monomer as reference
T5 construct: domain: Aβ1-42; soluble multimer of Aβ1-42; also called Aβ protofibril; Aβ protofibrils
Excerpt: The binding was detected by HRP-labeled secondary antibody and TMB substrate, as described in Example 2.

B1: 18P01A (mIgG1) (antibody, V domains shown)
VH: EVQLVESGGGLVQPGGSLKLSCAVSGFTFSGSAMHWVRQASGKGLEWVGRIRSKANSYATAYAASVKGRFTISRDDSKNTAFLQMNSLKTEDTAVYYCTSHAPNFDAFDIWGQGTMVTVSS
VL: QSVLTQPPSVSAAPGQKVTISCSGSSSNIGNHYVSWYQQLPGTAPKFFIYDNSKRPSGIPDRFSGSKSGTSATLGITGLQTGDEADYYCGTWDSSLSTYVFGTGTKVTVL
notes: chimeric: fully human F(ab')2 (human VH, VL, CH1, CL), mouse IgG1 CH2-CH3; also called Chimeric mouse 18P01A (mlgG1); Original 18P01A (mlgG1)
[1]
  EC50: 0.062 nM
[2]
  EC50: 67 nM
[3]
  ADCP (RFU): 673000 RFU
[4]
  EC50: 67 nM
[5]
  EC50: < 0.1 nM
[6]
  ADCP (RFU): 480000 RFU
[7]
  EC50: 0.062 nM
[8]
  EC50: 57.6 nM
[9]
  EC50: 57.6 nM
[10]
  EC50: 67 nM
[11]
  relative ADCP: 1.36 relative to ADCP response of rfmAb-1
[12]
  EC50: > 50 nM
[13]
  EC50: 0.062 nM

B2: 20O07A (mIgG1) (antibody, V domains shown)
VH: B1 VH with M34I, A55V, A61V, N104I
VL: B1 VL with F48L, V100F
notes: chimeric: fully human F(ab')2, mouse IgG1 CH2-CH3; also called Chimeric mouse 20O07A (mlgG1)
[1]
  EC50: 0.05 nM
[2]
  EC50: 2.57 nM
[5]
  EC50: < 0.1 nM
[6]
  ADCP (RFU): 334000 RFU
[7]
  EC50: 0.05 nM
[8]
  EC50: 336 nM
[14]
  ratio of IC50 monomer to IC50 protofibril: > 300 fold
[10]
  EC50: 2.57 nM
[11]
  relative ADCP: 1.05 relative to ADCP response of rfmAb-1
[12]
  EC50: > 50 nM

B3: 17P04A (mIgG1) (antibody, V domains shown)
VH: EVQLVESGGGLVKPGGSLRLSCAASGFTLSSFSMNWVRQAPGKGLEWVSSISSRRTYIYYADSAKGRFTFSRDNAKNSLYLQMNSLRAEDSAVYYCARGGYIGSPNAYDIWGQGTMVTVSS
VL: QTVVTQEPSLTVSPGGTVTLTCASSTGAVTSDYYPNWFQQKPGQAPRALIYSASTKHSWTPARFSGSLLGGKAALTLSGVQPEDEADYYCLLYYGGAWVFGGGTKLTVL
notes: chimeric: fully human F(ab')2, mouse IgG1 CH2-CH3; also called 17P64A; 17P4A
[1]
  EC50: 0.045 nM
[2]
  EC50: 35.2 nM
[3]
  ADCP (RFU): 328000 RFU
[4]
  EC50: 35.2 nM
[5]
  EC50: < 0.1 nM
[6]
  ADCP (RFU): 284000 RFU
[7]
  EC50: 0.045 nM
[8]
  EC50: 203 nM
[9]
  EC50: 203 nM
[10]
  EC50: 35.2 nM
[11]
  relative ADCP: 0.79 relative to ADCP response of rfmAb-1
[12]
  EC50: > 50 nM
[13]
  EC50: 0.045 nM

Source: US20240301046A1 (MABWELL THERAPEUTICS, published 2024)
